According to US20210380703A1 (RIGEL PHARMACEUTICALS, published 2021):

Key:
mouse ACVR2A = target: T1, mouse ACVR2A (mouse, UniProt P27038 20-135, limits assumed); experiment: ELISA
T1 construct: coated antigen of the initial ELISA
In short: (§1)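 Binding signal was read by ELISA after ACVR2A-specific monoclonal antibodies were tested against human ACVR2A and mouse ACVR2A, with human Fc as the negative control.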

human ACVR2A = target: T2, human ACVR2A (human, UniProt P27037 20-135, limits assumed); experiment: ELISA
T2 construct: coated antigen of the initial ELISA; also called activin receptor, type II A
T2 sequence (P27037 20-135 limits assumed): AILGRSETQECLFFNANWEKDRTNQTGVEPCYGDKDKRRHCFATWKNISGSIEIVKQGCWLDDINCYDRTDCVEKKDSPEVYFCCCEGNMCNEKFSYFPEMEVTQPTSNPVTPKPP
In short: as §1

[1] = target: T3, biotinylated goat anti-human kappa light chain; experiment: ELISA, positive control
T3 construct: positive control of the ELISA
In short: as §1
Note: test concentration or dose not given here.

T1 sequence (P27038 20-135 limits assumed): as the sequence (P27037 20-135 limits assumed) above, with K20R, V73I counted along it

Row | Binder | optical density (mouse ACVR2A) [OD] | optical density (human ACVR2A) [OD] | optical density [1] [OD]
1 | 374_B10 (antibody, V domains shown, Group III) VH: EVQLLESGGGLVQPGGSLRLSCAASGFTFSSYSMNWVRQAPGKGLEWVSSINYNSGYTSYADSVKGRFTISRDNSKNTLYLQMNSLRAEDTAVYYCARGANWHDTHLDYWGQGTLVTVSS VL: DIQMTQSPSSLSASVGDRVTITCRASQSILTYVNWYQQKPGKAPKLVIYAATSLASGVPSRFSGSGSGTDFTLTISSLQPEDFATYYCQQSYDTPLTFGGGTKVEIK | 3.69 | 3.71 | 3
2 | 374_D07 (antibody, V domains shown, Group III) VH: EVQLLESGGGLVQPGGSLRLSCAASGFTFDSYSMNWVRQAPGKGLEWVSGINYNSGYKSYADSVKGRFTISRDNSKNTLYLQMNSLRAEDTAVYYCARGANWHDTALDYWGQGTLVTVSS VL: DIQMTQSPSSLSASVGDRVTITCRASQSIVSYLNWYQQKPGKAPKLVIYAATSLASGVPSRFSGSGSGTDFTLTISSLQPEDFATYYCQQSYNSPLTFGGGTKVEIK | 3.68 | 3.71 | 3.26
3 | 374_C09 (antibody, V domains shown, Group III) VH: EVQLLESGGGLVQPGGSLRLSCAASGFTFDSYGMNWVRQAPGKGLEWVSSINYNGGYKGYADSVKGRFTISRDNSKNTLYLQMNSLRAEDTAVYYCARGANWHDTHLDYWGQGTLVTVSS VL: DIQMTQSPSSLSASVGDRVTITCRASQSIVSYLNWYQQKPGKAPKLVIYAATSRASGVPSRFSGSGSGTDFTLTISSLQPEDFATYYCQQSYELPLTFGGGTKVEIK | 3.51 | 3.43 | 3.14
4 | 374_D06 (antibody, V domains shown, Group III) VH: EVQLLESGGGLVQPGGSLRLSCAASGFTFSSYSMNWVRQAPGKGLEWVSGINYNGGYTSYADSVKGRFTISRDNSKNTLYLQMNSLRAEDTAVYYCARGANWHDTALDYWGQGTLVTVSS VL: DIQMTQSPSSLSASVGDRVTITCRASQSILSYVNWYQQKPGKAPKLVIYAATSRASGVPSRFSGSGSGTDFTLTISSLQPEDFATYYCQQSYDSPLTFGGGTKVEIK | 3.67 | 3.78 | 3.12
5 | 374_F07 (antibody, V domains shown, Group III) VH: EVQLLESGGGLVQPGGSLRLSCAASGFTFDSYSMNWVRQAPGKGLEWVASINYNGGYTGYADSVKGRFTISRDNSKNTLYLQMNSLRAEDTAVYYCARGANWHDTHLDYWGQGTLVTVSS VL: DIQMTQSPSSLSASVGDRVTITCRASQSILSYLNWYQQKPGKAPKLVIYAVTSLASGVPSRFSGSGSGTDFTLTISSLQPEDFATYYCQQSYESPLTFGGGTKVEIK | 3.54 | 3.47 | 3.21
6 | 374_E12 (antibody, V domains shown, Group III) VH: EVQLLESGGGLVQPGGSLRLSCAASGFTFSSYSMNWVRQAPGKGLEWVSGINYNGGYKSYADSVKGRFTISRDNSKNTLYLQMNSLRAEDTAVYYCARGANWHDTALDYWGQGTLVTVSS VL: DIQMTQSPSSLSASVGDRVTITCRASQSILSYLNWYQQKPGKAPKLVIYAATSRASGVPSRFSGSGSGTDFTLTISSLQPEDFATYYCQQSYDNPLTFGGGTKVEIK | 3.28 | 3.61 | 3.29
7 | 374_E10 (antibody, V domains shown, Group III) VH: EVQLLESGGGLVQPGGSLRLSCAASGFTFSSYSMNWVRQAPGKGLEWVSGINYNGGYKSYADSVKGRFTISRDNSKNTLYLQMNSLRAEDTAVYYCARGANWHDTALDYWGQGTLVTVSS VL: DIQMTQSPSSLSASVGDRVTITCRASQSILSYLNWYQQKPGKAPKLLIYAATSRHSGVPSRFSGSGSGTDFTLTISSLQPEDFATYYCQQSYDSPLTFGGGTKVEIK | 3.77 | 3.74 | 3.38
8 | 374_D05 (antibody, V domains shown, Group III) VH: EVQLLESGGGLVQPGGSLRLSCAASGFTFDSYSMNWVRQAPGKGLEWVSGINYNSGYTGYADSVKGRFTISRDNSKNTLYLQMNSLRAEDTAVYYCARGANWHDTHLDYWGQGTLVTVSS VL: DIQMTQSPSSLSASVGDRVTITCRASQSILTYLNWYQQKPGKAPKLLIYAATSRASGVPSRFSGSGSGTDFTLTISSLQPEDFATYYCQQSYDTPLTFGGGTKVEIK | 3.56 | 3.43 | 3.15
9 | 374_C12 (antibody, V domains shown, Group III) VH: EVQLLESGGGLVQPGGSLRLSCAASGFTFSSYSMNWVRQAPGKGLEWVAGINYNGGYKSYADSVKGRFTISRDNSKNTLYLQMNSLRAEDTAVYYCARGANWHDTALDYWGQGTLVTVSS VL: DIQMTQSPSSLSASVGDRVTITCRASQSILTYLNWYQQKPGKAPKLVIYAATSRASGVPSRFSGSGSGTDFTLTISSLQPEDFATYYCQQSDNSPLTFGGGTKVEIK | 3.33 | 3.67 | 3.15
10 | 374_D03 (antibody, V domains shown, Group III) VH: EVQLLESGGGLVQPGGSLRLSCAASGFTFDSYSMNWVRQAPGKGLEWVAGINYNGGYKSYADSVKGRFTISRDNSKNTLYLQMNSLRAEDTAVYYCARGANWHDTHLDYWGQGTLVTVSS VL: DIQMTQSPSSLSASVGDRVTITCRASQSIVTYLNWYQQKPGKAPKLLIYAATSRASGVPSRFSGSGSGTDFTLTISSLQPEDFATYYCQQSYDTPLTFGGGTKVEIK | 3.48 | 3.3 | 3.02
11 | 374_F06 (antibody, V domains shown, Group III) VH: EVQLLESGGGLVQPGGSLRLSCAASGFTFSSYSMNWVRQAPGKGLEWVSGINYNGGYTSYADSVKGRFTISRDNSKNTLYLQMNSLRAEDTAVYYCARGANWHDTALDYWGQGTLVTVSS VL: DIQMTQSPSSLSASVGDRVTITCRASQSIISYVNWYQQKPGKAPKLVIYAATSLHSGVPSRFSGSGSGTDFTLTISSLQPEDFATYYCQQSYSTPLTFGGGTKVEIK | 3.7 | 3.72 | 3.18
12 | 374_C01 (antibody, V domains shown, Group III) VH: EVQLLESGGGLVQPGGSLRLSCAASGFTFDSYGMNWVRQAPGKGLEWVSGINYNSGYKSYADSVKGRFTISRDNSKNTLYLQMNSLRAEDTAVYYCARGANWHDTALDYWGQGTLVTVSS VL: DIQMTQSPSSLSASVGDRVTITCRASQSILTYLNWYQQKPGKAPKLLIYAATSRASGVPSRFSGSGSGTDFTLTISSLQPEDFATYYCQQSYETPLTFGGGTKVEIK | 2.93 | 2.69 | 3.08
13 | 374_D10 (antibody, V domains shown, Group III) VH: EVQLLESGGGLVQPGGSLRLSCAASGFTFSSYGMHWVRQAPGKGLEWVASINYNGGYTSYADSVKGRFTISRDNSKNTLYLQMNSLRAEDTAVYYCARGANWHDTHLDYWGQGTLVTVSS VL: DIQMTQSPSSLSASVGDRVTITCRASQSILTYVNWYQQKPGKAPKLLIYAATSRASGVPSRFSGSGSGTDFTLTISSLQPEDFATYYCQQSYDNPLTFGGGTKVEIK | 3.64 | 3.56 | 3.27

Now from value to binder:

Row | optical density (mouse ACVR2A) [OD] | optical density (human ACVR2A) [OD] | optical density [1] [OD] | Binder
14 | 3.6 | 3.65 | 3.25 | 374_G11 (antibody, V domains shown, Group III) VH: EVQLLESGGGLVQPGGSLRLSCAASGFTFSDYSMNWVRQAPGKGLEWVSGINYNGGYTSYADSVKGRFTISRDNSKNTLYLQMNSLRAEDTAVYYCARGANWHDTALDYWGQGTLVTVSS VL: DIQMTQSPSSLSASVGDRVTITCRASQSIISYVNWYQQKPGKAPKLVIYAATSLASGVPSRFSGSGSGTDFTLTISSLQPEDFATYYCQQSYDSPLTFGGGTKVEIK
15 | 3.64 | 3.79 | 3.22 | 374_G03 (antibody, V domains shown, Group III) VH: EVQLLESGGGLVQPGGSLRLSCAASGFTFSDYSMNWVRQAPGKGLEWVSGINYNGGYTSYADSVKGRFTISRDNSKNTLYLQMNSLRAEDTAVYYCARGANWHDTALDYWGQGTLVTVSS VL: DIQMTQSPSSLSASVGDRVTITCRASQSISSYLNWYQQKPGKAPKLVIYAATSRASGVPSRFSGSGSGTDFTLTISSLQPEDFATYYCQQSDDTPLTFGGGTKVEIK
16 | 3.74 | 3.68 | 3.23 | 374_G10 (antibody, V domains shown, Group III) VH: EVQLLESGGGLVQPGGSLRLSCAASGFTFSSYSMNWVRQAPGKGLEWVSSINYNSGYTSYADSVKGRFTISRDNSKNTLYLQMNSLRAEDTAVYYCARGANWHDTHLDYWGQGTLVTVSS VL: DIQMTQSPSSLSASVGDRVTITCRASQSIVSYLNWYQQKPGKAPKLVIYAVTSRASGVPSRFSGSGSGTDFTLTISSLQPEDFATYYCQQSYDSPLTFGGGTKVEIK
17 | 3.68 | 3.67 | 3.18 | 374_F08 (antibody, V domains shown, Group III) VH: EVQLLESGGGLVQPGGSLRLSCAASGFTFDSYSMNWVRQAPGKGLEWVSGINYNGGYKSYADSVKGRFTISRDNSKNTLYLQMNSLRAEDTAVYYCARGANWHDTALDYWGQGTLVTVSS VL: DIQMTQSPSSLSASVGDRVTITCRASQSILTYVNWYQQKPGKAPKLVIYAVTSRASGVPSRFSGSGSGTDFTLTISSLQPEDFATYYCQQSYDTPLTFGGGTKVEIK
18 | 3.6 | 3.66 | 3.26 | 374_G09 (antibody, V domains shown, Group III) VH: EVQLLESGGGLVQPGGSLRLSCAASGFTFSSYSMNWVRQAPGKGLEWVAGINYNGGYKGYADSVKGRFTISRDNSKNTLYLQMNSLRAEDTAVYYCARGANWHDTHLDYWGQGTLVTVSS VL: DIQMTQSPSSLSASVGDRVTITCRASQSIVRYLNWYQQKPGKAPKLVIYAATSLASGVPSRFSGSGSGTDFTLTISSLQPEDFATYYCQQSYELPLTFGGGTKVEIK
19 | 3.7 | 3.71 | 3.21 | 374_G08 (antibody, V domains shown, Group III) VH: EVQLLESGGGLVQPGGSLRLSCAASGFTFDSYSMNWVRQAPGKGLEWVSGINYNGGYTSYADSVKGRFTISRDNSKNTLYLQMNSLRAEDTAVYYCARGANWHDTALDYWGQGTLVTVSS VL: DIQMTQSPSSLSASVGDRVTITCRASQSILTYVNWYQQKPGKAPKLVIYAATSRASGVPSRFSGSGSGTDFTLTISSLQPEDFATYYCQQSYDSPLTFGGGTKVEIK
